Results reported in patent publication US20200264182A1, “METHOD FOR DETECTING PROSTATE CANCER” (J-OIL MILLS, INC., priority 2017, published 2020).

Tests used:
[1] = Binding to sugar chains, summary of Tables 2 to 5; conditions: sugar chains No. 718, 722, 723, 727, 909, 910 and 933
Description: (§1) Details of the FAC method are described in Patent Document 2 filed by some of the present applicants, for example.
(§2) Binding constants (at 25° C.) of PhoSL, SRL, NSL and LSL belonging to the fucose α1→6 specific lectin for various sugar chains are shown in Tables 2 to 5.
The AAL and AOL bind to the fucose α1→6 sugar chains (sugar chains No. 015, 201 to 203, and 401 to 418), as well as to the glycolipid-type sugar chain excluding the fucose α1→6 (sugar chains No. 718, 722, 723, 727, 909, 910 and 933). The LCL and PSL bind to the fucose α1→6 sugar chain, as well as to sugar chain excluding the α1→6 fucose (sugar chains No. 003, and 005 to 014).

FAC binding constant = conditions: at 25° C.
Description: as §1, §2

[2] = sugar chain having fucose other than α1→6 fucose

Binding constant for sugar chain No. 728 (FAC binding constant; Table 3: sugar chain having fucose other than α1→6 fucose): <1000 M⁻¹ | Binding constant for sugar chain No. 419 (FAC binding constant; [2]): <1000 M⁻¹ | Binding constant for sugar chain No. 420 (FAC binding constant; [2]): <1000 M⁻¹ | Binding constant for sugar chain No. 718 (FAC binding constant; [2]): 65000 M⁻¹ | Binding constant for sugar chain No. 719 (FAC binding constant; [2]): <1000 M⁻¹ | Binding constant for sugar chain No. 720 (FAC binding constant; [2]): <1000 M⁻¹ | Binding constant for sugar chain No. 721 (FAC binding constant; [2]): <1000 M⁻¹ | Binding constant for sugar chain No. 722 (FAC binding constant; [2]): <1000 M⁻¹ | Binding constant for sugar chain No. 723 (FAC binding constant; [2]): 35000 M⁻¹ | Binding constant for sugar chain No. 726 (FAC binding constant; [2]): <1000 M⁻¹ | Binding constant for sugar chain No. 727 (FAC binding constant; [2]): 130000 M⁻¹ | Binding constant for sugar chain No. 729 (FAC binding constant; [2]): <1000 M⁻¹ | Binding constant for sugar chain No. 730 (FAC binding constant; [2]): <1000 M⁻¹ | Binding constant for sugar chain No. 731 (FAC binding constant; [2]): <1000 M⁻¹ | Binding constant for sugar chain No. 739 (FAC binding constant; [2]): <1000 M⁻¹ | Binding constant for sugar chain No. 909 (FAC binding constant; [2]): 310000 M⁻¹ | Binding constant for sugar chain No. 910 (FAC binding constant; [2]): 90000 M⁻¹ | Binding constant for sugar chain No. 931 (FAC binding constant; [2]): <1000 M⁻¹ | Binding constant for sugar chain No. 932 (FAC binding constant; [2]): <1000 M⁻¹ | Binding constant for sugar chain No. 933 (FAC binding constant; [2]): 210000 M⁻¹ | Binding constant for sugar chain No. 001 (FAC binding constant; sugar chain having no fucose): <1000 M⁻¹ | Binding constant for sugar chain No. 002 (FAC binding constant; sugar chain having no fucose): <1000 M⁻¹ | Binding constant for sugar chain No. 003 (FAC binding constant; sugar chain having no fucose): <1000 M⁻¹ | Binding constant for sugar chain No. 004 (FAC binding constant; sugar chain having no fucose): <1000 M⁻¹ | Binding constant for sugar chain No. 005 (FAC binding constant; sugar chain having no fucose): <1000 M⁻¹ | Binding constant for sugar chain No. 006 (FAC binding constant; sugar chain having no fucose): <1000 M⁻¹ | Binding constant for sugar chain No. 007 (FAC binding constant; sugar chain having no fucose): <1000 M⁻¹ | Binding constant for sugar chain No. 008 (FAC binding constant; sugar chain having no fucose): <1000 M⁻¹ | Binding constant for sugar chain No. 009 (FAC binding constant; sugar chain having no fucose): <1000 M⁻¹ | Binding constant for sugar chain No. 010 (FAC binding constant; sugar chain having no fucose): <1000 M⁻¹ | Binding constant for sugar chain No. 011 (FAC binding constant; sugar chain having no fucose): <1000 M⁻¹ | Binding constant for sugar chain No. 012 (FAC binding constant; sugar chain having no fucose): <1000 M⁻¹ | Binding constant for sugar chain No. 013 (FAC binding constant; sugar chain having no fucose): <1000 M⁻¹ | Binding constant for sugar chain No. 014 (FAC binding constant; sugar chain having no fucose): <1000 M⁻¹ | Binding constant for sugar chain No. 101 (FAC binding constant; sugar chain having no fucose): <1000 M⁻¹ | Binding constant for sugar chain No. 103 (FAC binding constant; sugar chain having no fucose): <1000 M⁻¹ | Binding constant for sugar chain No. 104 (FAC binding constant; sugar chain having no fucose): <1000 M⁻¹ | Binding constant for sugar chain No. 105 (FAC binding constant; sugar chain having no fucose): <1000 M⁻¹ | Binding constant for sugar chain No. 107 (FAC binding constant; sugar chain having no fucose): <1000 M⁻¹ | Binding constant for sugar chain No. 108 (FAC binding constant; sugar chain having no fucose): <1000 M⁻¹ | Binding constant for sugar chain No. 301 (FAC binding constant; sugar chain having no fucose): <1000 M⁻¹ | Binding constant for sugar chain No. 304 (FAC binding constant; sugar chain having no fucose): <1000 M⁻¹ | Binding constant for sugar chain No. 305 (FAC binding constant; sugar chain having no fucose): <1000 M⁻¹ | Binding constant for sugar chain No. 307 (FAC binding constant; sugar chain having no fucose): <1000 M⁻¹ | Binding constant for sugar chain No. 308 (FAC binding constant; sugar chain having no fucose): <1000 M⁻¹ | Binding constant for sugar chain No. 313 (FAC binding constant; sugar chain having no fucose): <1000 M⁻¹ | Binding constant for sugar chain No. 314 (FAC binding constant; sugar chain having no fucose): <1000 M⁻¹ | Binding constant for sugar chain No. 323 (FAC binding constant; sugar chain having no fucose): <1000 M⁻¹ | Binding constant for sugar chain No. 501 (FAC binding constant; sugar chain having no fucose): <1000 M⁻¹ | Binding constant for sugar chain No. 502 (FAC binding constant; sugar chain having no fucose): <1000 M⁻¹ | Binding constant for sugar chain No. 503 (FAC binding constant; sugar chain having no fucose): <1000 M⁻¹ | Binding constant for sugar chain No. 504 (FAC binding constant; sugar chain having no fucose): <1000 M⁻¹ | Binding constant for sugar chain No. 701 (FAC binding constant; sugar chain having no fucose): <1000 M⁻¹ | Binding constant for sugar chain No. 702 (FAC binding constant; sugar chain having no fucose): <1000 M⁻¹ | Binding constant for sugar chain No. 703 (FAC binding constant; sugar chain having no fucose): <1000 M⁻¹ | Binding constant for sugar chain No. 704 (FAC binding constant; sugar chain having no fucose): <1000 M⁻¹ | Binding constant for sugar chain No. 705 (FAC binding constant; sugar chain having no fucose): <1000 M⁻¹ | Binding constant for sugar chain No. 706 (FAC binding constant; sugar chain having no fucose): <1000 M⁻¹ | Binding constant for sugar chain No. 707 (FAC binding constant; sugar chain having no fucose): <1000 M⁻¹ | Binding constant for sugar chain No. 708 (FAC binding constant; sugar chain having no fucose): <1000 M⁻¹ | Binding constant for sugar chain No. 709 (FAC binding constant; sugar chain having no fucose): <1000 M⁻¹ | Binding constant for sugar chain No. 710 (FAC binding constant; sugar chain having no fucose): <1000 M⁻¹ | Binding constant for sugar chain No. 711 (FAC binding constant; sugar chain having no fucose): <1000 M⁻¹ | Binding constant for sugar chain No. 712 (FAC binding constant; sugar chain having no fucose): <1000 M⁻¹ | Binding constant for sugar chain No. 713 (FAC binding constant; sugar chain having no fucose): <1000 M⁻¹ | Binding constant for sugar chain No. 715 (FAC binding constant; sugar chain having no fucose): <1000 M⁻¹ | Binding constant for sugar chain No. 716 (FAC binding constant; sugar chain having no fucose): <1000 M⁻¹ | Binding constant for sugar chain No. 717 (FAC binding constant; sugar chain having no fucose): <1000 M⁻¹ | Binding constant for sugar chain No. 724 (FAC binding constant; sugar chain having no fucose): <1000 M⁻¹ | Binding constant for sugar chain No. 725 (FAC binding constant; sugar chain having no fucose): <1000 M⁻¹ | Binding constant for sugar chain No. 732 (FAC binding constant; sugar chain having no fucose): <1000 M⁻¹ | Binding constant for sugar chain No. 733 (FAC binding constant; sugar chain having no fucose): <1000 M⁻¹ | Binding constant for sugar chain No. 734 (FAC binding constant; sugar chain having no fucose): <1000 M⁻¹ | Binding constant for sugar chain No. 735 (FAC binding constant; sugar chain having no fucose): <1000 M⁻¹ | Binding constant for sugar chain No. 736 (FAC binding constant; sugar chain having no fucose): <1000 M⁻¹ | Binding constant for sugar chain No. 737 (FAC binding constant; sugar chain having no fucose): <1000 M⁻¹ | Binding constant for sugar chain No. 738 (FAC binding constant; sugar chain having no fucose): <1000 M⁻¹ | Binding constant for sugar chain No. 901 (FAC binding constant; sugar chain having no fucose): <1000 M⁻¹ | Binding constant for sugar chain No. 902 (FAC binding constant; sugar chain having no fucose): <1000 M⁻¹ | Binding constant for sugar chain No. 903 (FAC binding constant; sugar chain having no fucose): <1000 M⁻¹ | Binding constant for sugar chain No. 905 (FAC binding constant; sugar chain having no fucose): <1000 M⁻¹ | Binding constant for sugar chain No. 906 (FAC binding constant; sugar chain having no fucose): <1000 M⁻¹ | Binding constant for sugar chain No. 907 (FAC binding constant; sugar chain having no fucose): <1000 M⁻¹ | Binding constant for sugar chain No. 015 (FAC binding constant; sugar chain having α1→6 fucose): 91000 M⁻¹ | Binding constant for sugar chain No. 201 (FAC binding constant; sugar chain having α1→6 fucose): 51000 M⁻¹ | Binding constant for sugar chain No. 202 (FAC binding constant; sugar chain having α1→6 fucose): 54000 M⁻¹ | Binding constant for sugar chain No. 203 (FAC binding constant; sugar chain having α1→6 fucose): 66000 M⁻¹ | Binding constant for sugar chain No. 401 (FAC binding constant; sugar chain having α1→6 fucose): 55000 M⁻¹ | Binding constant for sugar chain No. 402 (FAC binding constant; sugar chain having α1→6 fucose): 11000 M⁻¹ | Binding constant for sugar chain No. 403 (FAC binding constant; sugar chain having α1→6 fucose): 52000 M⁻¹ | Binding constant for sugar chain No. 404 (FAC binding constant; sugar chain having α1→6 fucose): 65000 M⁻¹ | Binding constant for sugar chain No. 405 (FAC binding constant; sugar chain having α1→6 fucose): 56000 M⁻¹ | Binding constant for sugar chain No. 406 (FAC binding constant; sugar chain having α1→6 fucose): 47000 M⁻¹ | Binding constant for sugar chain No. 407 (FAC binding constant; sugar chain having α1→6 fucose): 45000 M⁻¹ | Binding constant for sugar chain No. 410 (FAC binding constant; sugar chain having α1→6 fucose): 38000 M⁻¹ | Binding constant for sugar chain No. 413 (FAC binding constant; sugar chain having α1→6 fucose): 32000 M⁻¹ | Binding constant for sugar chain No. 418 (FAC binding constant; sugar chain having α1→6 fucose): <1000 M⁻¹ | Binding constant for sugar chain No. 601 (FAC binding constant; sugar chain having α1→6 fucose): 61000 M⁻¹ | Binding constant for sugar chain No. 602 (FAC binding constant; sugar chain having α1→6 fucose): 52000 M⁻¹
B1: AAL: Aleuria aurantia lectin, has affinity for fucose α1→6 but is not specific; from J-OIL MILLS, Inc. (protein)
chain: PTEFLYTSKIAAISWAATGGRQQRVYFQDLNGKIREAQRGGDNPWTGGSSQNVIGEAKLFSPLAAVTWKSAQGIQIRVYCVNKDNILSEFVYDGSKWITGQLGSVGVKVGSNSKLAALQWGGSESAPPNIRVYYQKSNGSGSSIHEYVWSGKWTAGASFGSTVPGTGIGATAIGPGRLRIYYQATDNKIREHCWDSNSWYVGGFSASASAGVSIAAISWGSTPNIRVYWQKGREELYEAAYGGSWNTPGQIKDASRPTPSLPDTFIAANSSGNIDISVFFQASGVSLQQWQWISGKGWSIGAVVPTGTPAGW
binding to the glycolipid-type sugar chain excluding the fucose α1→6 (in words) [1]: bind
